The target of the assay is T1, GST-annexin A2 (human, UniProt P07355 1-339).
T1 construct: annexin A2 (ANXA2), human cDNA cloned into pGEX6P1; also called GST-ANXA2; source: E. coli, purified (glutathione beads)
In words: far-Western, overlay or dot blot; purified proteins (10 µg) dot-blotted on nitrocellulose in duplicate; incubated with bio-PLG (10 µg) together with S100A11 (10 µg); 1 mM Ca2+, 50 mM Tris-HCl pH 7.4; detected with streptavidin-HRP or anti-S100A11. To be noted: both partners purified.

T1 sequence (P07355 whole entry): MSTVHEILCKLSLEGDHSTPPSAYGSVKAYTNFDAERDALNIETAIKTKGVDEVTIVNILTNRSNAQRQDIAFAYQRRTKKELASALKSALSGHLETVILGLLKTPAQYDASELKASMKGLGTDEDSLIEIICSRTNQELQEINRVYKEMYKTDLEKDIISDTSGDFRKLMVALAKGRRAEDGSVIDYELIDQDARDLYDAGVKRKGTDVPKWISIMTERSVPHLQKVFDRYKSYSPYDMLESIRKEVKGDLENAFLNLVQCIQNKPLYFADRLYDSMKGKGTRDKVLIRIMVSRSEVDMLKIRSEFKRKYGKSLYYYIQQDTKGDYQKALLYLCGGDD

B1: S100A11 (recombinant, GST cleaved) (natural protein, human, UniProt P31949 1-105, looked up)
chain: MAKISSPTETERCIESLIAVFQKYAGKDGYNYTLSKTEFLSFMNTELAAFTKNQKDPGVLDRMMKKLDTNSDGQLDFSEFLNLIGGLAMACHDSFLKAVPSQKRT
notes: S100A11, human cDNA cloned into pGEX6P1; source: E. coli, purified (glutathione beads), GST cleaved by PreScission Protease and removed
Take B1: the binding result is given as “binds”.

Values taken from PMC11002074, “Lysyl oxidase-like 4 promotes the invasiveness of triple-negative breast cancer cells by orchestrating the invasive machinery formed by annexin A2 and S100A11 on the cell surface” (Frontiers in Oncology, 2024).
